Experimental data as given in the supplement of paper PMC6755084.

B1: F1*; the commonest letter at each place (parent)
chain: GAGACCGCAACTGAAAAGTTGTTATCACTTGTCGTAAGACACTTTGGATGGGTTGAAGTTCTGCACGTAGAAGCAAAAGGC

Variants of: B1
Test: fraction ligated after 30 min (ligated reads / total reads); higher = more ligase activity
Conditions: with F1*sub RNA substrate (template-directed ligation), 42 °C
Description: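 Chip-synthesised pool of F1* ligase ribozyme variants (all single and double substitutions, single, double and triple deletions in the catalytic core and GAA bulge, plus designed variants) was transcribed with T7 and reacted as a pool with excess substrate F1*sub for 30 min at 42 C in 50 mM EPPS pH 8.5, 25 mM MgCl2. Ligated and unligated bands were separated by PAGE, barcoded by RT and deep sequenced; fraction ligated = ligated reads / total reads per variant, relative activity = FL / FL of wild type (0.826). Sequences are the DNA template of the ribozyme.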

Row | Variant | fraction ligated
1 | T29G T45A | 0.673
2 | T29G T45C | 0.677
3 | T29G T45G | 0.267
4 | T30C A41G | 0.828
5 | T30C A41C | 0.752
6 | T30C A41T | 0.805
7 | T30C T32G C33G G38C A39C A41G | 0.831
8 | T30A G55A | 0.816
9 | T30A G55C | 0.741
10 | T30A G55T | 0.818
11 | T30C T45C | 0.475
12 | T30C T45G | 0.174
13 | T30C T45A | 0.668
14 | T30G A36C | 0.833
15 | T30C A37G | 0.83
16 | T30C A37C | 0.794
17 | T30C A37T | 0.805
18 | T30C T32C A39G A41G | 0.816
19 | T30C C42G | 0.817
20 | T30C C42A | 0.817
21 | T30C C42T | 0.794
22 | T30C A39C | 0.765
23 | T30C A39T | 0.764
24 | T30C A39G | 0.782

Row | Variant | fraction ligated
25 | T30C A48T | 0.346
26 | T30C A48C | 0.757
27 | T30C A48G | 0.329
28 | T30C T32C C33G G38C A39G A41G | 0.816
29 | T30A C42G | 0.847
30 | T30A C42A | 0.815
31 | T30A C42T | 0.852
32 | T30C A36T | 0.816
33 | T30C A36G | 0.823
34 | T30C A36C | 0.801
35 | T30A | 0.855
36 | T30G | 0.843
37 | T30C | 0.807
38 | T30C T43G | 0.768
39 | T30C T43A | 0.809
40 | T30C T43C | 0.788
41 | T30A T44A | 0.855
42 | T30A T44C | 0.828
43 | T30A T44G | 0.825
44 | T29G T44C | 0.795
45 | T29G T44G | 0.791
46 | T29G T44A | 0.848
47 | T30A A36T | 0.823
48 | T30A A36C | 0.854

Row | Variant | fraction ligated
49 | T30A A36G | 0.832
50 | T30A A39G | 0.805
51 | T30A A39C | 0.777
52 | T30A A39T | 0.81
53 | T30C G31C T32C C33G G38C A39G C40G A41G | 0.892
54 | T30C T35A | 0.796
55 | T30C T35G | 0.795
56 | T30C T35C | 0.824
57 | T30C G47T | 0.358
58 | T30C G47C | 0.0928
59 | T30C G47A | 0.798
60 | T30C G31C T32C A39G C40G A41G | 0.867
61 | T29G T32C | 0.809
62 | T29G T32G | 0.832
63 | T30C G46C | 0.759
64 | T30C G46A | 0.807
65 | T30C G46T | 0.78
66 | T30A G46T | 0.805
67 | T30A G46A | 0.809
68 | T30A G46C | 0.795
69 | T30C T32G A39C A41G | 0.852
70 | T30C G34C | 0.746
71 | T30C G34A | 0.792
72 | T30C G34T | 0.787

Row | Variant | fraction ligated
73 | T30C G31C T32G C33G G38C A39C C40G A41G | 0.839
74 | T30A T43G | 0.8
75 | T30A T43C | 0.794
76 | T30A T43A | 0.828
77 | T30A C33A | 0.847
78 | T30A C33T | 0.849
79 | T30A C33G | 0.84
80 | T30A T49G | 0.754
81 | T30A T49A | 0.694
82 | T30A T49C | 0.467
83 | T29G T43G | 0.777
84 | T29G T43C | 0.817
85 | T29G T43A | 0.826
86 | T30C A56T | 0.749
87 | T30C A56C | 0.763
88 | T30C A56G | 0.764
89 | T30C G31T | 0.823
90 | T30C G31A | 0.779
91 | T30C G31C | 0.789
92 | T30A A37G | 0.87
93 | T30A A37T | 0.832
94 | T30A A37C | 0.831
95 | T30C G31C T32G A39C C40G A41G | 0.862
96 | T30C C33A | 0.824

Row | Variant | fraction ligated
97 | T30C C33G | 0.837
98 | T30C C33T | 0.84
99 | T30A G47C | 0.128
100 | T30A G47T | 0.373
101 | T30A G47A | 0.793
102 | T30A T45C | 0.746
103 | T30A T45G | 0.211
104 | T30A T45A | 0.604
105 | T30C A57C | 0.777
106 | T30C A57T | 0.769
107 | T30C A57G | 0.818
108 | T30C G50T | 0.452
109 | T30C G50C | 0.107
110 | T30C G50A | 0.175
111 | T30A G34T | 0.802
112 | T30A G34A | 0.833
113 | T30A G34C | 0.781
114 | T30C T44G | 0.812
115 | T30C T44C | 0.803
116 | T30C T44A | 0.807
117 | T29G T35C | 0.803
118 | T29G T35A | 0.83
119 | T29G T35G | 0.813
120 | T30C T49G | 0.485

Row | Variant | fraction ligated
121 | T30C T49A | 0.575
122 | T30C T49C | 0.0166
123 | T30C C40T | 0.808
124 | T30C C40A | 0.828
125 | T30C C40G | 0.828
126 | T30C G55A | 0.81
127 | T30C G55C | 0.504
128 | T30C G55T | 0.757
129 | T30A C40A | 0.845
130 | T30A C40G | 0.803
131 | T30A C40T | 0.825
132 | T30A T35A | 0.839
133 | T30A T35G | 0.827
134 | T30A T35C | 0.816
135 | T30A A48T | 0.671
136 | T30A A48C | 0.741
137 | T30A A48G | 0.806
138 | T30A G50T | 0.57
139 | T30A G50A | 0.22
140 | T30A G50C | 0.111
141 | T29G T49A | 0.753
142 | T29G T49C | 0.733
143 | T29G T49G | 0.77
144 | T30C G38A | 0.797

Row | Variant | fraction ligated
145 | T30C G38C | 0.78
146 | T30C G38T | 0.795
147 | T30C T32G | 0.809
148 | T30C T32C | 0.726
149 | T30C T32A | 0.817
150 | T30A A57G | 0.837
151 | T30A A57C | 0.778
152 | T30A A57T | 0.8
153 | T30A T32G | 0.842
154 | T30A T32C | 0.768
155 | T30A T32A | 0.843
156 | T30A A56T | 0.81
157 | T30A A56G | 0.797
158 | T30A A56C | 0.773
159 | T30A A41C | 0.797
160 | T30A A41G | 0.798
161 | T30A A41T | 0.859
162 | T30A G38C | 0.795
163 | T30A G38T | 0.832
164 | T30A G38A | 0.813
165 | T30A G31T | 0.831
166 | T30A G31C | 0.784
167 | T30A G31A | 0.842
